Source: patent US20260069707A1, “COMBINATION THERAPY WITH ANTIBODY-DRUG CONJUGATES AND HYALURONIDASES” (HALOZYME, INC., priority 2024, published 2026)

Tests used:
[1] = Linker stability during skin tissue sample preparation (Trodelvy spiked into skin tissue); conditions: 100 μg/mL Trodelvy spiked into skin tissue, protein precipitation, LC-MS/MS
Description: Linker stability during skin tissue sample preparation was assessed by spiking 100 μg/mL Trodelvy into skin tissue, followed by protein precipitation and subsequent sample preparation for LC-MS/MS analysis. Free SN-38 was detected at approximately 10% of the total, which may be attributable to residual impurities in Trodelvy and/or linker hydrolysis occurring during the skin tissue processing steps. FIG. 62 provides the ratio of total ADC to total antibody (TADC/TAB) in skin tissue over time. Table 69 depicts the ratio of total ADC to total antibody in skin tissue homogenates, providing an indication of the extent of intact ADC that is remaining in the SC space over time.

[2] = pig, in vivo, sc
Description: Porcine serum was used as surrogate matrix to prepare calibration standards and quality controls for skin sample quantitation. Untreated blank porcine skin was provided for preparation of monitoring quality controls. The porcine skin was homogenized at an approximate ratio of 0.5 mL of buffer for every 100 mg of skin.
Porcine serum was used as surrogate matrix to prepare calibration standards and quality controls for the quantitation of skin samples. Supported liquid-liquid extraction was used for sample clean up. […] The porcine skin was homogenized at an approximate ratio of 0.5 mL of buffer for every 100 mg of skin.
Therefore, nominal time points were used for PK analyses. To estimate the serum concentration at time zero for intravenous (IV) data, a second-order polynomial regression was applied to the early serum time points (0.25, 1, and 2 hours). The intercept of the fitted polynomial curve was used as the extrapolated concentration at time zero. Skin concentration data (μg/mL) was normalized to total protein (mg/mL) per sample, resulting in values represented as μg/mg protein.
Pharmacokinetic parameters were calculated using noncompartmental methods performed in Microsoft Excel. The area under the concentration-time curve (AUC) was determined using the linear trapezoidal rule. For serum data, AUC0-7 was calculated using all available time points. For skin data, AUC1-7 was computed based on the three available time point measurements. The maximum observed concentration (Cmax) was identified directly from the dataset, and the time at which it occurred (Tmax) was recorded. All calculations were performed using Microsoft Excel.
This sample was divided vertically into two identical pieces. One skin sample was placed into a pre-weighed cryogenic tube and its weight was recorded then stored on dry ice prior to transfer to ≤−70° C. The other skin sample was processed for potential future histological assessment into OCT freezing media and frozen on dry ice.
Animals received two SC doses on their lower abdominal region.
Two cohorts were included in the follow-on study. […] Each animal had two full thickness skin biopsies taken post-mortem using a 12 mm punch. This sample was divided vertically into two identical pieces. One skin sample was placed into a pre-weighed cryogenic tube and its weight was recorded, then stored on dry ice prior to transfer to ≤−70° C. The other skin sample was processed into OCT molds for potential future histological assessment.
Tissue lysates were prepared based upon the weight of the sample at a ratio of 0.2 g/mL homogenization buffer (Tables 64 and 65). The total protein concentration of each homogenate was determined by BCA assay. The concentration of the total ADC (TADC), total antibody (TAB) and free payload (SN38) in each sample was then normalized to the protein concentration and reported in μg analyte per mg total protein.
In this initial study, six animals were used. […] Two cohorts were included in this study. Cohort 1 was euthanized 24 hours after treatment, while Cohort 2 was euthanized 48 hours after exposure to the two test solutions.

[3] = Calculation of drug to antibody ratio (DAR); conditions: for ADC:free Ab / free Ab:ADC: after adjustment factor
Text: The Drug-to-Antibody Ratio (DAR) is a critical parameter in antibody drug conjugate development, representing the average number of drug molecules attached to each antibody molecule.

[4] = Histological analysis (H&E) of post-injection tissue samples; assay type: in vivo, Yucatan miniature pig (Sus scrofa domestica)
Text: Following the assessment after day three, the animal was humanely euthanized using an injectable euthanasia drug provided by the vivarium staff. Following euthanasia full thickness punch biopsies of the injection site were taken (12 mm) and placed in 10% formalin. After obtaining the punch biopsies the animal carcass was removed and disposed of as biohazardous waste. Sections were made from tissue samples and assessed for histopathology using hematoxylin and eosin staining methods. Analyses were performed on each injection site (2 biopsies) and one untreated site. Three tissue depths were examined from each tissue section following level sectioning technique, representing the beginning, middle and end of each section.
After fixation the samples were processed and embedded into paraffin to make formalin fixed paraffin embedded (FFPE) tissues sections Each tissue section was evaluated at three different tissue depths (1-2-3; low-medium-high). In addition to tissue samples from the injection site, a sample was taken from naïve untreated tissue for comparison.
Each injection was one mL and was delivered using a pre-filled 1-cc syringe. After the last timepoint, the animal was humanely euthanized. After euthanasia, punch biopsies of each injection site were obtained and preserved in 10% formalin for histological analyses.
After fixation, the samples were processed and embedded into paraffin to make formalin fixed paraffin embedded (FFPE) tissues sections Each tissue section was evaluated at three different tissue depths (1-2-3; low-medium-high). In addition to tissue samples from the injection site, a sample was taken from two naïve untreated tissue sites for comparison. Tissue sections were prepared and stained with hematoxylin and eosin for pathohistological evaluation.
Method: After 72h, animals were euthanized and full-thickness punch biopsies taken (12 mm). FFPE sections were prepared from each injection site. Samples were evaluated at three different tissue depths. A sample of naïve skin was also included for comparison. Results: 1/3 tissue samples from ADC alone had multiple focal infiltrates in SC (all levels).

Substance: Sacituzumab govitecan [Trodelvy]
- Free SN-38 detected, % of the total [1]: approximately 10%
- AUC(1-7) of free payload in tissue homogenates of injection site, Mean [2]: 0.17 µg·days/mL
- AUC(1-7) of total ADC (TADC) in tissue homogenates of injection site, Mean [2]: 18.55 µg·days/mL
- AUC(1-7) of total antibody (TAB) in tissue homogenates of injection site, Mean [2]: 45.30 µg·days/mL
- Cmax of free payload in tissue homogenates of injection site, Mean [2]: 180 ng/mL
- Cmax of total ADC (TADC) in tissue homogenates of injection site, Mean [2]: 22860 ng/mL
- Cmax of total antibody (TAB) in tissue homogenates of injection site, Mean [2]: 29410 ng/mL
- TADC/Free Payload, mean AUC(1-7) [2]: 10704%
- TADC/Free Payload, mean Cmax [2]: 12800%
- TADC/TAB, mean AUC(1-7) [2]: 41%
- TADC/TAB, mean Cmax [2]: 78%
- Total ADC Result [2]: <0.100 µg/mL
- % DAR remaining (which may be ~ADC/ total Ab) ([3]; Day 1): 76.2%
- % DAR remaining after adjustment factor to allow for variability (line without head) ([3]; Day 1): 68.6%
- ADC:free Ab ([3]; Day 1): 218.2%
- free Ab:ADC ([3]; Day 1): 45.8%
- % DAR remaining (which may be ~ADC/ total Ab) ([3]; Day 7): 42.9%
- % DAR remaining after adjustment factor to allow for variability (line without head) ([3]; Day 7): 34.3%
- ADC:free Ab ([3]; Day 7): 52.2%
- free Ab:ADC ([3]; Day 7): 191.7%
- % DAR remaining (which may be ~ADC/ total Ab) ([3]; Day 14): 31.0%
- % DAR remaining after adjustment factor to allow for variability (line without head) ([3]; Day 14): 24.8%
- ADC:free Ab ([3]; Day 14): 32.9%
- free Ab:ADC ([3]; Day 14): 303.8%
- % DAR remaining (which may be ~ADC/ total Ab) ([3]; Day 21): 23.8%
- % DAR remaining after adjustment factor to allow for variability (line without head) ([3]; Day 21): 19.0%
- ADC:free Ab ([3]; Day 21): 23.5%
- free Ab:ADC ([3]; Day 21): 425.0%
- Local skin tolerability ([4]; Example 3: 1 mL SC, exposure times 4 hours or less): demonstrated local skin tolerability
- Tissue samples/injections with multiple focal (immune cell) infiltrates in SC ([4]; pig, in vivo): 1/3
- Focal instances of [immune] cell infiltrates in the SC space ([4]; pig, in vivo, sc): 2
- Necrosis ([4]; pig, in vivo, sc): 0
- Pathohistological findings (H&E) ([4]; pig, in vivo, sc): no findings
